According to PMC4031664 (Prion, 2013):

Target: T1, tandem OR repeats of mouse PrP (Mus musculus)
T1 chain: PHGGSWGQPHGGSWGQ
Test: crystal structure

B1: Fab fragment of the monoclonal POM2 IgG (Fab, V domains shown)
VH: VKLQESGGEVVRPGTSVKVSCKASGYAFTNYLIEWVKQRPGQGLEWIGVINPGSGDTNYNEKFKGKATLTADKSSSTAYMQLNSLTSDDSAVYFCARSGAAAPTYYAMDYWGQGVSVTVSS
VL: DIVMTQSHKFMSTSVGDRVSITCKASQVGTALAWYQQKPGQSPKLLIYWASTRHTGVPDRFTGSGSGTDFTLTISNVQSEDLSDYFCQQYSSYPTFGGGTKLEIK
  binding result: binds
